Data published in paper PMC314469, “Protein Interaction Networks by Proteome Peptide Scanning” (PLoS Biology, 2004).

T1: Myo5 SH3 (MYO5_YEAST), Q04439
T1 chain: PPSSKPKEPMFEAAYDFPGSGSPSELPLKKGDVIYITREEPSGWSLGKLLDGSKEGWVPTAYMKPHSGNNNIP

T2: Abp1 SH3 (ABP1_YEAST), P15891
T2 chain: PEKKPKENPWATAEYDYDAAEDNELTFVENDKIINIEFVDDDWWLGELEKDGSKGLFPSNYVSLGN

T3: Yfr024 SH3 (LSB3_YEAST), P43603
T3 chain: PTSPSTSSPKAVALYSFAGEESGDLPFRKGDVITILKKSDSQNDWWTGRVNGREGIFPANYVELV

T4: Rvs167 SH3 (RV167_YEAST), P39743
T4 chain: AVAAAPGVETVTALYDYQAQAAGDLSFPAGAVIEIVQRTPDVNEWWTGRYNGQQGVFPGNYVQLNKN

T5: Boi2 SH3 (BOI2_YEAST), P39969
T5 chain: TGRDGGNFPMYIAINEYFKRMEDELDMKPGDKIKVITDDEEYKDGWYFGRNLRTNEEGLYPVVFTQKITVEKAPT

T6: Yhr016c SH3 (YSC84_YEAST), P32793
T6 chain: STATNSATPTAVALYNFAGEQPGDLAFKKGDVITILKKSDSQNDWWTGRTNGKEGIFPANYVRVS

T7: Boi1 SH3 (BOI1_YEAST), P38041
T7 chain: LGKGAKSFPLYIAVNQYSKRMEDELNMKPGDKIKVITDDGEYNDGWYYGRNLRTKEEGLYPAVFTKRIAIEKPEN


Key:
Assay in all cases: SPOT array
[1] = biological target: T1, Myo5 SH3 (MYO5_YEAST), Q04439
[2] = biological target: T2, Abp1 SH3 (ABP1_YEAST), P15891
[3] = biological target: Sho1 SH3 (SHO1_YEAST), P40073
[4] = biological target: T3, Yfr024 SH3 (LSB3_YEAST), P43603
[5] = biological target: T4, Rvs167 SH3 (RV167_YEAST), P39743
[6] = biological target: T5, Boi2 SH3 (BOI2_YEAST), P39969
[7] = biological target: T6, Yhr016c SH3 (YSC84_YEAST), P32793
[8] = biological target: T7, Boi1 SH3 (BOI1_YEAST), P38041

Sequence of Sho1 SH3 (SHO1_YEAST), P40073 (P40073 295-366): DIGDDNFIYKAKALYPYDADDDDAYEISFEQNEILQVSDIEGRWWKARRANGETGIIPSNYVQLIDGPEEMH

| Binder | normalised SPOT signal, Boehringer light units (BLU); mean over the file's lines of this peptide [1] | other results |
| --- | --- | --- |
| ILTSLPVPPPPVRP [YDL140C 235-248] | 617 | normalised SPOT signal, Boehringer light units (BLU); mean over the file's lines of this peptide [2]: 208 |
| NFLKHYLPSSPGDI [YDL033C 241-254] | 172 |  |
| NIQPNIPLRSYRYL [782-795 Hypothetical ORF] |  | normalised SPOT signal, Boehringer light units (BLU); mean over the file's lines of this peptide [3]: 117 |
| RERPLEPPRKPMAS [YDR448W 142-155] | 967 | normalised SPOT signal, Boehringer light units (BLU); mean over the file's lines of this peptide [4]: 13500; normalised SPOT signal, Boehringer light units (BLU); mean over the file's lines of this peptide [5]: 599; normalised SPOT signal, Boehringer light units (BLU); mean over the file's lines of this peptide [6]: 41.1; normalised SPOT signal, Boehringer light units (BLU); mean over the file's lines of this peptide [7]: 1830; normalised SPOT signal, Boehringer light units (BLU); mean over the file's lines of this peptide [8]: 256 |
| LWKPLVYPTSPSEH [YFR019W 1841-1854] | 185 |  |
| NAIEMALPNDPYPA [YGR032W 156-169] | 87.2 |  |
| MEEPFIWPEEPRPD [YDR405W 164-177] | 79.7 |  |
| NETKLKFPTLPEVP [YHR117W 470-483] | 255 |  |
| LPTALLSPLRPSLS [YCL051W 199-212] | 115 |  |
| LPFMYLLPRFPSHI [YGR065C 182-195] | 455 |  |
| NEIELLRPRSPVQK [YCL055W 320-333] | 126 |  |
| NKIPPKPRKVLQLL [93-106 Ribosomal protein L7A (L6A) (rp11) (YL8)] |  | normalised SPOT signal, Boehringer light units (BLU); mean over the file's lines of this peptide [3]: 152 |
| NASLLRDPSAPYAH [YER064C 198-211] | 134 |  |
| NALKLIHPFMPFIS [YGR094W 895-908] | 170 |  |
| NFPSLIDPHVPTYG [YDL223C 906-919] | 97.4 |  |
| LVGMRSFPLYPSGL [YDL068W 45-58] | 386 | normalised SPOT signal, Boehringer light units (BLU); mean over the file's lines of this peptide [4]: 1940; normalised SPOT signal, Boehringer light units (BLU); mean over the file's lines of this peptide [5]: 387; normalised SPOT signal, Boehringer light units (BLU); mean over the file's lines of this peptide [6]: 325; normalised SPOT signal, Boehringer light units (BLU); mean over the file's lines of this peptide [7]: 330; normalised SPOT signal, Boehringer light units (BLU); mean over the file's lines of this peptide [8]: 512 |
| LPAVFSAPIRPDIV [YBR031W 22-35] | 202 |  |
| LPQQHLSPLIPIAI [YGL035C 132-145] | 45.3 |  |
| MFELLSHPKVPVGM [YHR197W 602-615] | 268 |  |
| NEDTFLPPPPPPPS [YHR165C 44-57] | 20400 |  |
| NIQPDLPPRKIMIP [90-103 Hypothetical ORF] |  | normalised SPOT signal, Boehringer light units (BLU); mean over the file's lines of this peptide [3]: 197 |
| MLNEHGVPVVPSRE [YER014W 436-449] | 199 |  |

Continued, in another order:

| normalised SPOT signal, Boehringer light units (BLU); mean over the file's lines of this peptide [1] | Binder | other results |
| --- | --- | --- |
| 109 | NEKLHETPHLPSPV [YNL204C 272-285] |  |
| 228 | TELNLSSPNVPGKP [YKL216W 127-140] | normalised SPOT signal, Boehringer light units (BLU); mean over the file's lines of this peptide [2]: 166 |
| 253 | LWILYMSPDVPSAS [YPL058C 1310-1323] |  |
| 255 | WETWLYKPGMPPRP [YNL045W 490-503] | normalised SPOT signal, Boehringer light units (BLU); mean over the file's lines of this peptide [2]: 310 |
| 344 | NEHGMNAPSVPEFI [YOR290C 25-38] |  |
| 156 | NEFLHFDPHIPQPA [YNL223W 328-341] |  |
| 152 | MANILYYPQKPLGT [YOR151C 792-805] |  |
| 165 | LPTGYYEPMKPSSL [YLL016W 406-419] |  |
| 241 | NALGLDPPPSPEDP [YLR203C 42-55] |  |
| 223 | MASGLLPPIQPGFD [YJR106W 230-243] |  |
| 96.8 | NAIAMALPNEPYPA [YLR342W 137-150] |  |
| 162 | LLYLMTYPQQPMVK [YOR207C 724-737] |  |
| 239 | MFTYFQEPPFPDLL [YPL063W 167-180] |  |
| 111 | NEAPMLSPQRPYST [YLR006C 162-175] |  |
| 145 | LPEELMRPKVPELL [YPL012W 957-970] |  |
| 226 | NASAMPAPYMPYYY [YIR010W 139-152] |  |
| 172 | MAKSFADPRVPQPM [YPR112C 91-104] |  |
| 173 | KLAILTSPFEPPKP [YJR064W 268-281] | normalised SPOT signal, Boehringer light units (BLU); mean over the file's lines of this peptide [2]: 40.4 |
| 126 | MLFSWPYPEAPIEG [YPL087W 1-14] |  |
| 80.1 | NEGDLYPPEQPGVD [YJL115W 157-170] |  |
| 257 | MLKALFTPLIPVSF [YML068W 248-261] |  |
| 204 | MFNLLQKPEQPHQN [YLR291C 121-134] |  |
| 161 | MASFLPVPEKPNLI [YNL206C 125-138] |  |
| 43400 | LPAPPPPPRRGPA [YOR181W 341-353] |  |
